Biological target: spliceosomal snRNP core Sm proteins, endogenous in cell extracts
Experiment: co-IP with Y12 from transfected 293T cells, Western blot

“myc-tagged SMNΔC26 (from UniProt Q16637 1-268)” showed an amount co-immunoprecipitated relative to wild-type SMN (fraction of wild type) of 0.33.

From patent US6646113
